Source: the DeepSol protein solubility set

experiment: soluble on expression in E. coli; label from the status in PepcDB or PDB records

Row | Sequence | soluble on expression in E. coli
1 | MRVAVLGAGAWGTALAVLLASKGVPTRLWARRKAQAEALKAMRENRDYLPGVALPAYLYPTHDPEEALEGAELAVLAVPSKALRETVAGLPPAPWYVSATKGLFYGEEGVRTPAEVVEALTQRPVVALSGPNHAEEVARFLPTASVAAGPEDLARRVQALFSGPTFRVYTSRDRRGVELGGAVKNVLALAAGMVDGLRLGDNAKAALLTRGLKEMVRFGTALGGEEATFYGLAGLGDLLATAYSLHSRNRMAGESLVRGVDREALEARGVVEGLYAVKAMVAWGKEQGVELPVAEAVHRVAHEGLDPLAALKALMAREPKEE | soluble
2 | MGSSHHHHHHGGTGENLYFQGGSGMADERFDSMLLAIAQQQQGIDGILDTFFSFLNRKTDFFTQPDMARRSVQQAMSRYLAEAEEKQRKAKEAQAAAQQQQQQQQQSARTSSRVEVLESEEEVNAVAAAQAAEEAAQRKQELERAQREVAEAKAKKEAAGNEAETGATEAFADTGDAPRGLPPTAANGFAYEKYIFSQSLQEAEVRVPLPAVNVKGKQVSIVITSSHLTVGMKGQPPIVDGDLYSKVRAEECMWTIEDGHTVVVTLYKVNSMEWWKTIFQGDPEIDLQKVIPENSKLDDLDSDTRQTVEKMMYDQRQKMMGKPTSDEQKKQDMLRKFMEAHPEMDFSQAKFC | soluble
3 | MSISWGAQYPKLKTNLRLGINRLQLLGKKKTEMAMKARTEIADYIAANKPDRARIRVEHIIREDYVVEAFEILEMYCDLLLARFGLIEQMKTLDDGIAEAVISIMWAAPRLATDIAEFKTISDQLTIKYGKPFAEAARANQLEFPARVNPKIISKLGAAAPPKLLVERYMIEIAAAAGVPFVPDPDVMREDEVHQAEQILIDFKNAGGNGPSGPDGPPPPPSNPYGGSGNDNGSSGGGGGYGWNLENQSAIGSGVMPHGTAIGGGVQPVSNFIPPPPNRHPNEPPQDDENIYDHIPDVSGGNIYEVPSRDHYDFPPDAFNEEPPKTNPTTGVINLPKIGPNGLPIYPGQQQPKGPGGAQAYPALSQRNSLVNPNLQPNHPTAPPQSLRKPDDFSDLSFPEPPSSFVGGNNKPGGPGGNNGGGAGNGGFDDFDDLARRFEELKKIK | not soluble
4 | MKLNFSLYRYNPDVDNKPYMKDYILEVEEGSDMMVLDALILLKEQDPSIAFRRSCREGVCGSDGLNMNGKNGLACITPLSALKGDKIVIRPLPGLPVVRDLIVDMTQFYDNYAKVKPFLIADDALPPSRENLQSPEERAHLDGLYECIMCACCTTSCPSFWWNPDKFIGPAGLLAAYRWLIDSRDTATDERLSNLDDAFSVFRCHGIMNCVSVCPKGLNPTKAIGHIKSMLINRSV | not soluble
5 | DVTDIKVKEAEIVSKSVAIREIHHRVKNNLQSVVSLLRIQGRRSTSVEAQKVLNESVSRILAIAATHELLSKQMEDGINLYMVIEAVAYNIERCCNDCPQVAVRMDI | not soluble
6 | MGSDKIHHHHHHMKETEARAAEALRRLLENIPILHVEGIDAEAVSGDWVPDLIARLVVDGKRHLLICEYKSSGQPRFARSALLELRNYVAQRAPEATPVFIAPYISPVVRKMCEEKGVGYLDLEGNARIAFGGVFIERMVTDKPVVEQRELRSLFRPKSAQVLRAMLRDPGRAWRVTELSEISGVSLGHVSNVRTGLIDREWARASDDGLILSEPDALLDAWRDSYAAPAGERSSFYTPLHGSALEDAARSVLRVEDTRGRAAFASFSAAQWLAPYGRTGTHYFFADEDGLRKLQAALKLAPALKGENVIVTVPKDLGLLADTVEPAPGAICTSPVQTYLDLSIAGERGAEAADHLRQERLSWPR | not soluble
7 | MAHHHHHHMLKHPQAALLFVHNSSDLFQNDTLGVLRNKTKIQNKKKISRFKIQSSEERHTDGGLHYDLTPENVEKVLNLIRPKLQIDNGDVELVDIKNNDLYIKLLGNCVTCSSNSVTVSQVIKKTLKMYIRNEKNEEPNVIITNFDEINEENIHSCLSDLKPYFDFLSKWHTGGGTPLGVMLGGRGSYSKEKRPFKGGDPSHSISSTPPPLKRAKRSTV | not soluble
8 | MSMSDINKNSELIFIPAPGIGHLASALEFAKLLTNHDKNLYITVFCIKFPGMPFADSYIKSVLASQPQIQLIDLPEVEPPPQELLKSPEFYILTFLESLIPHVKATIKTILSNKVVGLVLDFFCVSMIDVGNEFGIPSYLFLTSNVGFLSLMLSLKNRQIEEVFDDSDRDHQLLNIPGISNQVPSNVLPDACFNKDGGYIAYYKLAERFRDTKGIIVNTFSDLEQSSIDALYDHDEKIPPIYAVGPLLDLKGQPNPKLDQAQHDLILKWLDEQPDKSVVFLCFGSMGVSFGPSQIREIALGLKHSGVRFLWSNSAEKKVFPEGFLEWMELEGKGMICGWAPQVEVLAHKAIGGFVSHCGWNSILESMWFGVPILTWPIYAEQQLNAFRLVKEWGVGLGLRVDYRKGSDVVAAEEIEKGLKDLMDKDSIVHKKVQEMKEMSRNAVVDGGSSLISVGKLIDDITGSN | soluble
9 | MRIALFTETFLPKIDGIVTRLCQTVRHLQRNGHQVLVVAPDGGLDHYEGARIYGVSGFPLPLYPELKLALPRPAIGKALAAFEPDLIHVANPAVLGLAGLYYAQKFQLPLVASYHTHLPQYLKYYGLGFLEELLWFLLRWGHNCAQLNLCTSTAMVAELKAHGIRHLDLWQRGVDVELFHPQRQSQEMRHFLSQGHPEAPLLLYVGRLSAEKEIEQIKPILEQIPQARLALVGNGPHREALEKHFAGTPTHFVGYLRGERLAGAFASADVFIFPSRTETLGLVLLEAMAAGCPVVAANSGGIPDIVTDGVNGFLFDPADPTGAITACQRLFDSPDDRETLRQNARQEAERWSWAAATQQLEQYYRSVLPVPQRDVALSHLEHHHHHH | not soluble
10 | MSLKYAVLGATGLLGHHAARAIRAAGHDLVLVHRPSSQIQRLAYLEPECRVAEMLDHAGLERALRGLDGVIFSAGYYPSRPRRWQEEVASALGQTNPFYAACLQARVPRILYVGSAYAMPRHPQGLPGHEGLFYDSLPSGKSSYVLCKWALDEQAREQARNGLPVVIGIPGMVLGELDIGPTTGRVITAIGNGEMTHYVAGQRNVIDAAEAGRGLLMALERGRIGERYLLTGHNLEMADLTRRIAELLGQPAPQPMSMAMARALATLGRLRYRVSGQLPLLDETAIEVMAGGQFLDGRKAREELGFFSTTALDDTLLRAIDWFRDNGYFNTEGHHHHHH | soluble
11 | SNVRATYTVIFKNASGLPNGYDNWGWGCTLSYYGGAMIINPQEGKYGAVSLKRNSGSFRGGSLRFDMKNEGKVKILVENSEADEKFEVETISPSDEYVTYILDVDFDLPFDRIAFQDAPGNGDRIWIKNLVHSTGSADDFVDPINLEHHHHHH | soluble
12 | MSESSHVGLWNRCLEIIRDNVPESTYKTWFVPIVPLKYEDKTLIVQVPSQFFYEFLEDKFVDLLRKTLYKVIGDGTKLMYNVLVDKSSGATVNQESTTRSTAIPQSGLPRVDERKAPGLLRAPAVQDLDPHLNPNYNFETFIEGYSNKLSRSVAEAVAENPAKTVFNPLFLHGASGVGKTHLANAIGTRIKELYPDKRVLYVSAHLFQVQYTDSVRNNTTNDFINFYQTIDVLIIDDIQEFAGVTKTQNTFFHIFNHLHQNGKQLILTSDRAPVLLQGMEERLLTRFKWGMVAELEKPTVELRKNILRNKIHRDGLQFPSEVIDYIAENVNESVRDLEGIVISIMAHSTIYNKEIDLDLAQRIVRKVVRCETKAVTIDDIINVVCKHFDLESSAIHTKSRKREVVQARQVAMYLAKTHTDFSTSKIGKFIGNKDHATVLHACKTVKGQCEVDKGFRSDLENIETLLKKRNVSNGERLEHHHHHH | soluble
13 | MDLFQAMRVYVKVVEAGSLTAAAQACSISTTMVGNHLRALEQRLGVSLLQRTTRRQRLTEFGTAYYERCLEVLGLVAESEQLAEQAQGDPSGTLRITAPLTFGSEVLAPALAGFSLRFPEVKLDLVLTNQRLDMIDNGFDIAIRLGNIPQSSPLIARLMQDYTLTICAAPSYLARHGTPAHPEDLGAHNCLAFSYPAGDEWRTAGTQWRMTGPEGEVLVDVDGSMVANTSAGLYQAACAGMGVVMLPDALVQRDLQEGRLVALLPGYHLPRRPMNLLYVQDRYRLPKVRSFVEYAMGLWGR | not soluble
14 | MGSDKIHHHHHHMTAIRVTITQVKGSAPRDTGTSMLVFADRIEGTIGGGALEWEAMRLARDMLRNGTSVTTHTFPLGPALGQCCGGVVKLELQAATQWKGVEKTPIWIWGAGHVGRAIIHTLSPFSALDLSWIDTAADRFPADIPNDTHRLIATDPPRLMPHAPPNAHHLIATYSHDIDLALCHAALTHGFASAGVIGSATKWARFRKRLGQMGHSGAQISRIMCPIGDPGLGKHPQAIAIGVAARLLGEQMLQESAQHLKDVDHGGT | not soluble
15 | MAHHHHHHMTTADDVCGAYTLSHCDGKVAPTKATLTIHRCGEILTAHVTVVNDLRGTVQYENCHIVGSLHSTGNEASPAQESVEQALSKGFADGFNVVVEMNQVLLKNANSAFVFARLSKLSDLNGEHAIIAINDQPPNQEMTMIFTPDGNGGSFVAANIANSLRGNCQIDAGLLRGDLATTQSEADESLMQVEKLISEGFQQGFHVCMNESGILLQSSEANIQLCRIVSHSDLEGEYVLKSFNGAPVPTRNQPSIVFKSVNTNEVEISIVVANRIRGTAALNQNVLSSEEPLMSTRMMGTEEESQLENAFNVGFQYGLETISHGNELTLKNQDCKFVLVKAAAPAAQHGGPTYKGTYCNKCFKTEGNGLLFRIVNEHEKKWAFYNDTEDLRIRVRATFGARSKIEALDNANMYKDDDGRYVVEVTVDPQATEMFIQGDVNGFRVLYDAQPI | not soluble
16 | GKGLGRRVLSINEIVGYDAVNQAFNFMDIFKWDPATDTFKFTGKNNSYLLEHKIAPRMGIPETQVRKIYSELDRRSKILRKIHQANITNFYDLFTTLIQLEEAGVIS | not soluble
17 | SQSAEKFQGSHLLCPGCGHGIIVREVLNAVDGPIVLGNSTGCLEVCSAVYPHTSWDVPWIHIGFENGSTAISGVEAMYKALTNKGRYQGQKPKFVAFGGDGASYDIGLQFISGCMERGHDMTYICLDNENYANTGGQRSGSTPLGASTSTTPAGSVSFGKKEKKKDIVNIMASHGVPYVAQLSPNKWKDMNKKIKTALDTEGPCFINALSPCTTEWKFESNKTIELADMAVDSLMFPLFEIFNGRELKITYRPRNIIPVRDYLGAQKRFKHLFKKENEHIIEELQKDVNERWEYLQRREEAK | not soluble
18 | MSIYSKILVVADINHDEQPALARAMQLAQKSTSVSHITFFLSIYDFSYDMTSMLSLEERDAMRKGVIHQREQWMRSIAEPYLDKSVQFDIKVVWHNRPYEAIIGEIFAGEHDILIKATRKHDMLESVIFTPTDWHLMRKCPTPVLLVKNADWPENANIIASVHVGSELDTHIDLNDRMVEQLLNLSKRLGASPYLVNAYPVTPANITIELPEFDPTTYTDAVRGHHLTAMKALRQKHGLSEEQTLVQQGLPEDVIPEAAKQLNAAMVILGTTGRTGLSAVFIGNTAEHVIDKINCDVLALKPNGYVSPLDPQTAI | not soluble
19 | MYVNKQEIIKNIQKLSPKSPAEYIEKDGCFMLTCPENTYPSFFSQFQYSEIPPPGNLIPQNALEISPPTSLEEMGGASLSEYFGIICDDGVWKLTKYPNGITFNKDPPSYTNGSLNGYKTEIFTMNCY | not soluble
20 | MGGSHHHHHHGMASAQETNQTPGPMLCSTGCGFYGNPRTNGMCSVCYKEHLQRQQNSGRMSPMGTASGSNSPTSDSASVQRADTSLNNCEGAAGSTSEKSRNVPVAALPVTQQMTEMSISREDKITTPKTEVSEPVVTQPSPSVSQPSTSQSEEKAPELPKPKKNRCFMCRKKVGLTGFDCRCGNLFCGLHRYSDKHNCPYDYKAEAAAKIRKENPVVVAEKIQRI | not soluble
21 | MVSSAVKCGICRGVDGKYKCPKCGVRYCSLKCYKDAAKHVHKESEQPRAGTEANVEVVNNDKIINSSLAMNKTLKTKAFDDIYQNSAELQELLKYNTVKFHLAKVYRILSSTVNDGSSGKMNSDLQKELAVNYLNTLRYGGIHYNEAIEEFCQILLDKLNAVKK | soluble
